Assays:
EGF receptor [1] = biological target: T1, EGF receptor (UniProt P00533 25-1210, limits assumed); assay: immunofluorescence of phage on A431 cells
T1 construct: whole, on cells; also called epidermal growth factor receptor

EGF receptor [2] = biological target: T1, EGF receptor; assay: competition of fdEGF phage binding to A431 cells, FACS, inhibition from mean fluorescence intensity

| Binder | binding result (EGF receptor [1]) | IC50 (EGF receptor [2]) |
| --- | --- | --- |
| EGF1 library clone 3 (phage-displayed EGF variant) (other, displayed on phage as a coat protein fusion (pHEN3), also called EGF1 # 3; not shown: phage coat protein fusion partner of phagemid pHEN3 (and any vector tags) at the C end) NSDSECPLSHDGYCLHDGVCMYIEALDEYACNCVVGYIGERCQYRDLRWWELR | binds |  |
| HisEGFm1 (EGFm1 with N-terminal hexahistidyl tag) (ligand, human, UniProt P01133 971-1023, looked up, mature; Clone 6 of the EGF2 library selection, expressed in the E. coli periplasm and purified by IMAC; The preparation also held molecules of about 15 kDa (dimer size); also called purified EGFm1; soluble EGFm1; not shown: N-terminal hexahistidyl tag (HHHHHH); primer SfiHisEGF encodes ...Met-Ala-Gly-His6-Ala befor) NSDSECPLSHDGYCLHDGVCMYIEALDQYACNCVVGYIGERCQYSDLSWWELS |  | ~500 nM |
